Assay results published in patent US20150139990A1 (DAINIPPON SUMITOMO PHARMA, published 2015).

Columns and labels:
human CD81 mutant V135A = biological target: T1, human CD81 mutant V135A (human, UniProt P60033 1-236, limits assumed); experiment: ELISA
T1 construct: as m30; not shown: C-terminal V5 and 6xHis tags
T1 sequence: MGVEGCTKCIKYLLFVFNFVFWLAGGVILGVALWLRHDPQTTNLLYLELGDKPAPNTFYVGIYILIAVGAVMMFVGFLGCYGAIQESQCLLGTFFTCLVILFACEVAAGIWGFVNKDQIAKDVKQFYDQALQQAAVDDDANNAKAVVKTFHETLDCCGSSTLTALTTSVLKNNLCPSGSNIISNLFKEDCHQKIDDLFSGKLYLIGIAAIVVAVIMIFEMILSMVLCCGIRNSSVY

human CD81 mutant A164T = biological target: T2, human CD81 mutant A164T (human, UniProt P60033 1-236, limits assumed); experiment: ELISA
T2 construct: as m30; not shown: C-terminal V5 and 6xHis tags
T2 sequence: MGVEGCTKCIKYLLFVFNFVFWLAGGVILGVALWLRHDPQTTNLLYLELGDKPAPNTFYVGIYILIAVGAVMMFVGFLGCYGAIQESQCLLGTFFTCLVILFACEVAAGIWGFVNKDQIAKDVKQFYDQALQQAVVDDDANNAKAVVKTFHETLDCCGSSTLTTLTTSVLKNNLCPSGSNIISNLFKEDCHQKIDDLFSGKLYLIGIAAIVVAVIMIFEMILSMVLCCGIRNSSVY

human CD81 mutant L165A = biological target: T3, human CD81 mutant L165A (human, UniProt P60033 1-236, limits assumed); experiment: ELISA
T3 construct: as m30; not shown: C-terminal V5 and 6xHis tags
T3 sequence: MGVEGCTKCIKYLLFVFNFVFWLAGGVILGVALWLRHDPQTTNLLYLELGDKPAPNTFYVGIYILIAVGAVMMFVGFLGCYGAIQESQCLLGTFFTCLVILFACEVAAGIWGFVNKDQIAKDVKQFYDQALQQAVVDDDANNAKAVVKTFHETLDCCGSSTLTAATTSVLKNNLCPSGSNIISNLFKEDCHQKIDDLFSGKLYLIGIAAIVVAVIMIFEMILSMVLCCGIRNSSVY

human CD81 mutant V169A = biological target: T4, human CD81 mutant V169A (human, UniProt P60033 1-236, limits assumed); experiment: ELISA
T4 construct: as m30; not shown: C-terminal V5 and 6xHis tags
T4 sequence: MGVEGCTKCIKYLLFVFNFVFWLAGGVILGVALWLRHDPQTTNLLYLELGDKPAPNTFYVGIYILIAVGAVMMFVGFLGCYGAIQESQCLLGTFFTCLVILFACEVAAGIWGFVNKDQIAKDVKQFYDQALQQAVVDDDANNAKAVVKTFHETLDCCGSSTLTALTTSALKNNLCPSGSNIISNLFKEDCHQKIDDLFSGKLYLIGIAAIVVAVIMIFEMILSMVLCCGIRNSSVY

human CD81 mutant A164V = biological target: T5, human CD81 mutant A164V (human, UniProt P60033 1-236, limits assumed); experiment: ELISA
T5 construct: as m30; not shown: C-terminal V5 and 6xHis tags
T5 sequence: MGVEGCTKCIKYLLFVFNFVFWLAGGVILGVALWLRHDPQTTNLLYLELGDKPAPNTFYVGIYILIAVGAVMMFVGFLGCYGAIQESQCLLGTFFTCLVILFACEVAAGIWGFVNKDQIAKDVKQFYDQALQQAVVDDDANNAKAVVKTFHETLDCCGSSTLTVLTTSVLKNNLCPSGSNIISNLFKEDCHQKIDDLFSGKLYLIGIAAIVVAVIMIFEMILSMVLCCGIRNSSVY

human CD81 mutant S168T = biological target: T6, human CD81 mutant S168T (human, UniProt P60033 1-236, limits assumed); experiment: ELISA
T6 construct: as m30; not shown: C-terminal V5 and 6xHis tags
T6 sequence: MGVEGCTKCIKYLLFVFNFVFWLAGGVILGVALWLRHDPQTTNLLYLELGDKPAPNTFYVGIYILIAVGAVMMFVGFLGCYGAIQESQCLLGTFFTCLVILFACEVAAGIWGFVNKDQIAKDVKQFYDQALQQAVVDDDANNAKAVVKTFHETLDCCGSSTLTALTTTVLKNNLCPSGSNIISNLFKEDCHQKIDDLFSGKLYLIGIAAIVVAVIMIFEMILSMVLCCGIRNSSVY

human CD81 mutant V169L = biological target: T7, human CD81 mutant V169L (human, UniProt P60033 1-236, limits assumed); experiment: ELISA
T7 construct: as m30; not shown: C-terminal V5 and 6xHis tags
T7 sequence: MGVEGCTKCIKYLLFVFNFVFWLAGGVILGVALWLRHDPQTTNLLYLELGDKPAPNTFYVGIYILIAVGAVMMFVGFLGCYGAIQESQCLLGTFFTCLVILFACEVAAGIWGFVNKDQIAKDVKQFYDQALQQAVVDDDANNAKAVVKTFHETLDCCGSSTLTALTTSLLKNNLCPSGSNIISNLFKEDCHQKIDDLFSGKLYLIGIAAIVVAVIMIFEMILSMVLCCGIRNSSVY

[1] = biological target: T8, human CD81 on CD81-expressing cells (Jurkat E6.1, human PBMC, Ramos) (human, UniProt P60033 1-236); experiment: cell-based or functional assay
T8 sequence: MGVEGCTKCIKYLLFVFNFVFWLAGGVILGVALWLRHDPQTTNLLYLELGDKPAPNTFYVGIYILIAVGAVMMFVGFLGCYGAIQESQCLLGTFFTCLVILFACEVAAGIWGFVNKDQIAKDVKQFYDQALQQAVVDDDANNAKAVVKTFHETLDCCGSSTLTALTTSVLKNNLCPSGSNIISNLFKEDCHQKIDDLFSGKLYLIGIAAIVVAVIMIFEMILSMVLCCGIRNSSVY

human CD81 mutant I194A = biological target: T9, human CD81 mutant I194A (human, UniProt P60033 1-236, limits assumed); experiment: ELISA
T9 construct: as m30; not shown: C-terminal V5 and 6xHis tags
T9 sequence: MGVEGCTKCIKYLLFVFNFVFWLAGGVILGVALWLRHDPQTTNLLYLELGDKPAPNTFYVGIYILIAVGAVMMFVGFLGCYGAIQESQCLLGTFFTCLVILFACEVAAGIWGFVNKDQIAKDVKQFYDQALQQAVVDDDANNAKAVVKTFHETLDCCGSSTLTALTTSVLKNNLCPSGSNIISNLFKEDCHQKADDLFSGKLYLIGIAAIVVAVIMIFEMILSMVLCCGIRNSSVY

human CD81 mutant D137A = biological target: T10, human CD81 mutant D137A (human, UniProt P60033 1-236, limits assumed); experiment: ELISA
T10 construct: as m30; not shown: C-terminal V5 and 6xHis tags
T10 sequence: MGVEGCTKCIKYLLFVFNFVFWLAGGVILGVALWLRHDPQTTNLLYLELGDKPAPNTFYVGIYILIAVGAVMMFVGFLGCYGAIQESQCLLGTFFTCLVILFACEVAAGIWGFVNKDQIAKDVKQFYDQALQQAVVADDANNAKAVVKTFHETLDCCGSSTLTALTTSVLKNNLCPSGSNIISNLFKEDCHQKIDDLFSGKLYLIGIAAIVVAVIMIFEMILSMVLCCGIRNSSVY

human CD81 mutant G158S = biological target: T11, human CD81 mutant G158S (human, UniProt P60033 1-236, limits assumed); experiment: ELISA
T11 construct: as m30; not shown: C-terminal V5 and 6xHis tags
T11 sequence: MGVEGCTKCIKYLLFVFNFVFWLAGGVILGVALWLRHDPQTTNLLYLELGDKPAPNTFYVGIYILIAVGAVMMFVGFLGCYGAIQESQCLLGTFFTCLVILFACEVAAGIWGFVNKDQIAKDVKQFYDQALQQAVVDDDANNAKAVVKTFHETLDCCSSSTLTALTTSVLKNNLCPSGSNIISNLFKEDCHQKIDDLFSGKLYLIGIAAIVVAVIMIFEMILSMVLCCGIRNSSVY

human CD81 mutant V135L = biological target: T12, human CD81 mutant V135L (human, UniProt P60033 1-236, limits assumed); experiment: ELISA
T12 construct: as m30; not shown: C-terminal V5 and 6xHis tags
T12 sequence: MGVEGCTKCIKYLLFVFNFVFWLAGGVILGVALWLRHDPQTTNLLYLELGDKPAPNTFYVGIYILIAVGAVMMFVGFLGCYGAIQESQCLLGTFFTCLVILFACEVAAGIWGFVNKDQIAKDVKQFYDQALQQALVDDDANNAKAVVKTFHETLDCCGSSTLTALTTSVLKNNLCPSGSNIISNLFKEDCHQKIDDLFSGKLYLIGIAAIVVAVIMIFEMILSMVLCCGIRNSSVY

human CD81 mutant H151R = biological target: T13, human CD81 mutant H151R (human, UniProt P60033 1-236, limits assumed); experiment: ELISA
T13 construct: as m30; also called H151B; not shown: C-terminal V5 and 6xHis tags
T13 sequence: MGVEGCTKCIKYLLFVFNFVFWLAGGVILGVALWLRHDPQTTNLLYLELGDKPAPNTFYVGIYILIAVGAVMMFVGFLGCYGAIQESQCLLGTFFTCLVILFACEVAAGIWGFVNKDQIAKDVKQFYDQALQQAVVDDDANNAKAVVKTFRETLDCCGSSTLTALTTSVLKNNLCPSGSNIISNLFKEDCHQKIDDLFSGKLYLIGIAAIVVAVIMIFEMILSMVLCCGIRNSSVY

B1: 002-A07 S115N (antibody, human IgG4 S228P, lambda, V domains shown)
VH: EVQLLESGGGLVQPGGSLRLSCAASGFTFSSNYMSWVRQAPGKGLEWVSYISSSSTYTDYADSVKGRFTISRDNSKNTLYLQMNSLRAEDTAVYYCARYSYGRDNFDYWGQGTLVTVSS
VL: QSVLTQPPSASGTPGQRVTISCTGSTSNIGAGYDTHWYQQLPGTAPKLLIYGNSNRPSGVPDRFSGSKSGTSASLAISGLRSEDEADYYCQSYDTNLNVWVFGGGTKLTVLG
notes: IgG4 S228P; glycosylation site mutant of 002-A07 VL
relative binding affinity (human CD81 mutant V135A): < 20%
relative binding affinity (human CD81 mutant A164T): < 20%
relative binding affinity (human CD81 mutant L165A): < 20%
relative binding affinity (human CD81 mutant V169A): < 20%
relative binding affinity (human CD81 mutant A164V): < 20%
relative binding affinity (human CD81 mutant S168T): < 20%
relative binding affinity (human CD81 mutant V169L): < 20%
Jurkat chemotaxis (% of control IgG4) at 0.001 µg/mL [1]: 79%
Jurkat chemotaxis (% of control IgG4) at 0.01 µg/mL [1]: 69%
Jurkat chemotaxis (% of control IgG4) at 0.1 µg/mL [1]: -4%
Jurkat chemotaxis (% of control IgG4) at 1 µg/mL [1]: -11%
Jurkat chemotaxis (% of control IgG4) at 10 µg/mL [1]: -9%

B2: 002-F01 (antibody, human IgG4 S228P, lambda, V domains shown)
VH: EVQLLESGGGLVQPGGSLRLSCAASGFTFSSNYMSWVRQAPGKGLEWVSYISSSSTYTDYADSVKGRFTISRDNSKNTLYLQMNSLRAEDTAVYYCARYSYGRDNFDYWGQGTLVTVSS
VL: QSVLTQPPSASGTPGQRVTISCTGSTSNIGAGYDTHWYQQLPGTAPKLLIYGNSNRPSGVPDRFSGSKSGTSASLAISGLRSEDEADYYCQSYDTNLSAWVFGGGTKLTVLG
notes: IgG4 S228P
relative binding affinity (human CD81 mutant V135A): < 20%
relative binding affinity (human CD81 mutant A164T): < 20%
relative binding affinity (human CD81 mutant L165A): < 20%
relative binding affinity (human CD81 mutant V169A): < 20%
relative binding affinity (human CD81 mutant I194A): < 20%
relative binding affinity (human CD81 mutant A164V): < 20%
relative binding affinity (human CD81 mutant S168T): < 20%
relative binding affinity (human CD81 mutant V169L): < 20%
Jurkat chemotaxis (% of control IgG4) at 0.001 µg/mL [1]: 89%
Jurkat chemotaxis (% of control IgG4) at 0.01 µg/mL [1]: 87%
Jurkat chemotaxis (% of control IgG4) at 0.1 µg/mL [1]: 35%
Jurkat chemotaxis (% of control IgG4) at 1 µg/mL [1]: 4%
Jurkat chemotaxis (% of control IgG4) at 10 µg/mL [1]: 9%

B3: 002-B05 (antibody, human IgG4 S228P, lambda, V domains shown)
VH: EVQLLESGGGLVQPGGSLRLSCAASGFTFSSNYMSWVRQAPGKGLEWVSYISSSSTYTDYADSVKGRFTISRDNSKNTLYLQMNSLRAEDTAVYYCARYSYSRDNFDYWGQGTLVTVSS
VL: QSVLTQPPSASGTPGQRVTISCTGSTSNIGAGYGTHWYQRLPGTAPKLLIYGNSNRPSGVPDRFSGSKSGTSASLAISGLRSEDEADYYCQSYDTNLSVWVFGGGTKLTVLG
notes: IgG4 S228P
relative binding affinity (human CD81 mutant V135A): < 20%
relative binding affinity (human CD81 mutant D137A): < 20%
relative binding affinity (human CD81 mutant G158S): < 20%
relative binding affinity (human CD81 mutant A164T): < 20%
relative binding affinity (human CD81 mutant L165A): < 20%
relative binding affinity (human CD81 mutant V169A): < 20%
relative binding affinity (human CD81 mutant V135L): < 20%
relative binding affinity (human CD81 mutant H151R): < 20%
relative binding affinity (human CD81 mutant A164V): < 20%
relative binding affinity (human CD81 mutant V169L): < 20%
Jurkat chemotaxis (% of control IgG4) at 0.001 µg/mL [1]: 84%
Jurkat chemotaxis (% of control IgG4) at 0.01 µg/mL [1]: 78%
Jurkat chemotaxis (% of control IgG4) at 0.1 µg/mL [1]: 10%
Jurkat chemotaxis (% of control IgG4) at 1 µg/mL [1]: -1%
Jurkat chemotaxis (% of control IgG4) at 10 µg/mL [1]: -10%
